Experimental data: PMC3995651

Tests used:
Assay in all cases: cross-linking; BS3 (0.5 or 5 mM), 5 µM protein in solution without liposomes, 20 mM Hepes, 150 mM NaCl, pH 7.4; 30 min room temperature, then 2 min 37°C with BS3; SDS-PAGE, Coomassie; step: monomers to dimer
[1] = molecular target: BIN1 N-BAR domain (1-254) R154Q (human)
[2] = molecular target: BIN1 N-BAR domain (1-254) D151N (human)
[3] = molecular target: BIN1 N-BAR domain (1-254) K35N (human)
[4] = molecular target: BIN1 N-BAR domain (1-254), wild type (human)

BIN1 N-BAR domain (1-254) R154Q (domain or fragment)
stoichiometry N [1]: 2

BIN1 N-BAR domain (1-254) D151N (domain or fragment)
stoichiometry N [2]: 2

BIN1 N-BAR domain (1-254) K35N (domain or fragment)
stoichiometry N [3]: 2

BIN1 N-BAR domain (1-254), wild type (domain or fragment)
stoichiometry N [4]: 2
